The text below walks through data of article PMC3811445.

The target of this experiment is E. coli EF-G (Δ529SNP531) (E. coli) (UniProt P0A6M8). As to the kind of experiment: ITC; performed as described previously (ref 11); conditions not given here.

What is called Kd is the constant that tells how readily two partners part at equilibrium. Low values mean higher affinity, high ones lower affinity. In the case of FusB (natural protein), the Kd was determined as 5.8 µM.
